In the supplement of paper PMC7877785:
± gives the uncertainty stated by the source.

Test: self-splicing fitness, log relative to wild type (ln ratio); higher = more splicing; Tetrahymena group I intron in knt gene, E. coli kanamycin selection, DiMSum; sequences stand for … in CUCUCU…GGAGGGAAAAGUUAUCAGGCAUGCACCUGGUAGCUAGUCUUUAAACCAAUAGAUUGCAUCGGUUUAAAAGGCAAGACCGUCAAAUUGCGGGAAAGGGGUCAACAGCCGUUCAGUACCAAGUCUCAGGGGAAACUUUGAGAUGGCCUUGCAAAGGGUAUGGUAAUAAGCUGACGGACAUGGUCCUAACCACGCAGCCAAGUCCUAAGUCAACAGAUCUUCUGUUGAUAUGGAUGCAGUUCACAGACUAAAUGUCGGUCGGGGAAGAUGUAUUCUUCUCAUAAGAUAUAGUCGGACCUCUCCUUAAUGGGAGCUAGCGGAUGAAGUGAUGCAACACUGGAGCCGCUGGGAACUAAUUUGUAUGCGAAAGUAUAUUGAUUAGUUUUGGAGUACUCGUGGUCG
In short: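 Colonies from six replicate transformations of E. coli BL21(DE3) were pooled and amplicon-sequenced on an Illumina HiSeq 2500. The library placed an intron with all eight P1ex-region nucleotides randomised inside the knt kanamycin-resistance gene on pET-22b(+), and cells grew overnight at 37°C or 30°C on LB agar with or without 25 μg/mL kanamycin (plus 100 μg/mL carbenicillin, 50 μM IPTG, 0.2% rhamnose). Fitness is the DiMSum error-weighted combination of wild-type-normalised replicate fold changes, kanamycin versus none.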

UAAAAGCAAUAUUACGUCGU
self-splicing fitness (ln) (30 °C): -3.29 ± 0.13
self-splicing fitness (ln) (37 °C): -2.17 ± 0.11

UAGUAGCAAUAUUACGCUAC
self-splicing fitness (ln) (30 °C): -2.41 ± 0.42

CCGUAGCAAUAUUACGAAGG
self-splicing fitness (ln) (30 °C): -3.22 ± 0.39

GACAAGCAAUAUUACGUUUC
self-splicing fitness (ln) (30 °C): -4.22 ± 0.19
self-splicing fitness (ln) (37 °C): -2.25 ± 0.16

AUGCAGCAAUAUUACGGUUG
self-splicing fitness (ln) (30 °C): -4.33 ± 0.23
self-splicing fitness (ln) (37 °C): -2.21 ± 0.19

AGAUAGCAAUAUUACGCGUG
self-splicing fitness (ln) (30 °C): -1.44 ± 0.1
self-splicing fitness (ln) (37 °C): -1.01 ± 0.12

AUGGAGCAAUAUUACGGAUA
self-splicing fitness (ln) (30 °C): -2.46 ± 0.17
self-splicing fitness (ln) (37 °C): -2.21 ± 0.28

UAGAAGCAAUAUUACGGGAA
self-splicing fitness (ln) (30 °C): -1.96 ± 0.25
self-splicing fitness (ln) (37 °C): -2.3 ± 0.29

UAGUAGCAAUAUUACGUUCG
self-splicing fitness (ln) (30 °C): -0.331 ± 0.091
self-splicing fitness (ln) (37 °C): -0.159 ± 0.11

CUAAAGCAAUAUUACGCUGC
self-splicing fitness (ln) (30 °C): -3.7 ± 0.47
self-splicing fitness (ln) (37 °C): -2.53 ± 0.42

UGGAAGCAAUAUUACGACCA
self-splicing fitness (ln) (30 °C): -0.871 ± 0.18
self-splicing fitness (ln) (37 °C): -0.92 ± 0.21

CCUUAGCAAUAUUACGACCG
self-splicing fitness (ln) (30 °C): 0.294 ± 0.11
self-splicing fitness (ln) (37 °C): -0.348 ± 0.18

AGCCAGCAAUAUUACGCAUU
self-splicing fitness (ln) (30 °C): -1.65 ± 0.062
self-splicing fitness (ln) (37 °C): -1.25 ± 0.075

CAUAAGCAAUAUUACGCAAU
self-splicing fitness (ln) (30 °C): -3.2 ± 0.25
self-splicing fitness (ln) (37 °C): -2.59 ± 0.36

ACCGAGCAAUAUUACGCCGC
self-splicing fitness (ln) (30 °C): -2.66 ± 0.32
self-splicing fitness (ln) (37 °C): -2.1 ± 0.29

CUGAAGCAAUAUUACGACCA
self-splicing fitness (ln) (30 °C): -4.88 ± 0.41
self-splicing fitness (ln) (37 °C): -1.22 ± 0.18

CUGGAGCAAUAUUACGAUAU
self-splicing fitness (ln) (30 °C): -2.36 ± 0.35
self-splicing fitness (ln) (37 °C): -2.54 ± 0.41

CAUAAGCAAUAUUACGGCUG
self-splicing fitness (ln) (30 °C): -0.37 ± 0.082
self-splicing fitness (ln) (37 °C): 0.0915 ± 0.12

GACUAGCAAUAUUACGGAUU
self-splicing fitness (ln) (30 °C): -0.975 ± 0.066
self-splicing fitness (ln) (37 °C): -0.588 ± 0.092

UUUCAGCAAUAUUACGGUCC
self-splicing fitness (ln) (30 °C): -2.8 ± 0.37
self-splicing fitness (ln) (37 °C): -0.245 ± 0.35

GCUUAGCAAUAUUACGUGGU
self-splicing fitness (ln) (30 °C): -2.81 ± 0.15
self-splicing fitness (ln) (37 °C): -1.93 ± 0.16

UGGUAGCAAUAUUACGGCCC
self-splicing fitness (ln) (30 °C): -0.562 ± 0.18
self-splicing fitness (ln) (37 °C): -0.000115 ± 0.21

UAUAAGCAAUAUUACGUAUC
self-splicing fitness (ln) (30 °C): -1.88 ± 0.17
self-splicing fitness (ln) (37 °C): -2.03 ± 0.19

GUGUAGCAAUAUUACGUUCA
self-splicing fitness (ln) (30 °C): -0.405 ± 0.14
self-splicing fitness (ln) (37 °C): -0.597 ± 0.13

GGAGAGCAAUAUUACGUAGU
self-splicing fitness (ln) (30 °C): -1.91 ± 0.19
self-splicing fitness (ln) (37 °C): -2.15 ± 0.3

AAUCAGCAAUAUUACGUUGC
self-splicing fitness (ln) (30 °C): -3.97 ± 0.23
self-splicing fitness (ln) (37 °C): -3.16 ± 0.22

AAAUAGCAAUAUUACGACCA
self-splicing fitness (ln) (30 °C): -0.537 ± 0.12
self-splicing fitness (ln) (37 °C): -0.525 ± 0.17

UAACAGCAAUAUUACGGUGG
self-splicing fitness (ln) (30 °C): -1.67 ± 0.067
self-splicing fitness (ln) (37 °C): -1.06 ± 0.084

CUCAAGCAAUAUUACGUGGA
self-splicing fitness (ln) (30 °C): -3.76 ± 0.18
self-splicing fitness (ln) (37 °C): -1.19 ± 0.084

GGGUAGCAAUAUUACGAUGA
self-splicing fitness (ln) (30 °C): -0.862 ± 0.13
self-splicing fitness (ln) (37 °C): -0.927 ± 0.14

CAGCAGCAAUAUUACGCGCG
self-splicing fitness (ln) (30 °C): -1.63 ± 0.099
self-splicing fitness (ln) (37 °C): -1.3 ± 0.14

UUCGAGCAAUAUUACGUGUG
self-splicing fitness (ln) (30 °C): -2.52 ± 0.13
self-splicing fitness (ln) (37 °C): -1.59 ± 0.12

CCACAGCAAUAUUACGAAGC
self-splicing fitness (ln) (30 °C): -3.85 ± 0.2
self-splicing fitness (ln) (37 °C): -2.3 ± 0.15

GCCGAGCAAUAUUACGAGCU
self-splicing fitness (ln) (30 °C): -2.84 ± 0.26
self-splicing fitness (ln) (37 °C): -3.15 ± 0.33

AGUGAGCAAUAUUACGAACA
self-splicing fitness (ln) (30 °C): -1.77 ± 0.18
self-splicing fitness (ln) (37 °C): -0.734 ± 0.15

GGUUAGCAAUAUUACGUUGG
self-splicing fitness (ln) (30 °C): -4.01 ± 0.34
self-splicing fitness (ln) (37 °C): -1.72 ± 0.18

AAAAAGCAAUAUUACGGUCC
self-splicing fitness (ln) (30 °C): -0.603 ± 0.084
self-splicing fitness (ln) (37 °C): 0.0637 ± 0.11

GUCGAGCAAUAUUACGAUAU
self-splicing fitness (ln) (30 °C): -1.44 ± 0.13
self-splicing fitness (ln) (37 °C): -0.298 ± 0.17

AUUUAGCAAUAUUACGGGCU
self-splicing fitness (ln) (30 °C): -2.71 ± 0.19
self-splicing fitness (ln) (37 °C): -0.78 ± 0.16

CGGAAGCAAUAUUACGAUGU
self-splicing fitness (ln) (30 °C): -2.72 ± 0.19
self-splicing fitness (ln) (37 °C): -0.735 ± 0.14

AUUCAGCAAUAUUACGAGGU
self-splicing fitness (ln) (30 °C): -3.61 ± 0.17
self-splicing fitness (ln) (37 °C): -1.72 ± 0.14

UUCUAGCAAUAUUACGAUCU
self-splicing fitness (ln) (30 °C): -2.84 ± 0.34
self-splicing fitness (ln) (37 °C): -2.52 ± 0.27

GGGUAGCAAUAUUACGCGCG
self-splicing fitness (ln) (30 °C): -0.435 ± 0.11
self-splicing fitness (ln) (37 °C): 0.558 ± 0.15

ACCCAGCAAUAUUACGUACC
self-splicing fitness (ln) (30 °C): -1.85 ± 0.12
self-splicing fitness (ln) (37 °C): -1.63 ± 0.15

GCCAAGCAAUAUUACGCGCG
self-splicing fitness (ln) (30 °C): -1.87 ± 0.13
self-splicing fitness (ln) (37 °C): -0.932 ± 0.14

UACCAGCAAUAUUACGUCCU
self-splicing fitness (ln) (30 °C): -1.79 ± 0.1
self-splicing fitness (ln) (37 °C): -1.34 ± 0.14

AACGAGCAAUAUUACGAUGG
self-splicing fitness (ln) (30 °C): -3.27 ± 0.16
self-splicing fitness (ln) (37 °C): -3 ± 0.26

AAUGAGCAAUAUUACGCUUG
self-splicing fitness (ln) (30 °C): -3.09 ± 0.17
self-splicing fitness (ln) (37 °C): -2.11 ± 0.18

GCCUAGCAAUAUUACGUCCG
self-splicing fitness (ln) (30 °C): -3 ± 0.42
self-splicing fitness (ln) (37 °C): -2.03 ± 0.26

GGGCAGCAAUAUUACGGGGC
self-splicing fitness (ln) (30 °C): -0.887 ± 0.22
self-splicing fitness (ln) (37 °C): -1.9 ± 0.42

AAGGAGCAAUAUUACGGGCA
self-splicing fitness (ln) (30 °C): -1.9 ± 0.23
self-splicing fitness (ln) (37 °C): -1.2 ± 0.28

AGUAAGCAAUAUUACGCAGU
self-splicing fitness (ln) (30 °C): -4.13 ± 0.17
self-splicing fitness (ln) (37 °C): -2.98 ± 0.19

UAUAAGCAAUAUUACGUUAC
self-splicing fitness (ln) (30 °C): -3.45 ± 0.21
self-splicing fitness (ln) (37 °C): -2.46 ± 0.23

AAGUAGCAAUAUUACGCCUC
self-splicing fitness (ln) (30 °C): -1.63 ± 0.27

CGGGAGCAAUAUUACGCCGG
self-splicing fitness (ln) (30 °C): -2.87 ± 0.46
self-splicing fitness (ln) (37 °C): -1.81 ± 0.34

CUAAAGCAAUAUUACGCGUG
self-splicing fitness (ln) (30 °C): -1.09 ± 0.075
self-splicing fitness (ln) (37 °C): 0.243 ± 0.11

AGCCAGCAAUAUUACGCCAC
self-splicing fitness (ln) (37 °C): -3.04 ± 0.43

GAGUAGCAAUAUUACGGGUU
self-splicing fitness (ln) (30 °C): -2.25 ± 0.14
self-splicing fitness (ln) (37 °C): -1.81 ± 0.2

CCAGAGCAAUAUUACGUAUG
self-splicing fitness (ln) (30 °C): -2.22 ± 0.11
self-splicing fitness (ln) (37 °C): -1.77 ± 0.12

GCCUAGCAAUAUUACGGCUC
self-splicing fitness (ln) (30 °C): -1.99 ± 0.15
self-splicing fitness (ln) (37 °C): -0.272 ± 0.17

GGAGAGCAAUAUUACGGGGG
self-splicing fitness (ln) (37 °C): -1.49 ± 0.46

GUGGAGCAAUAUUACGGCAA
self-splicing fitness (ln) (37 °C): -1.55 ± 0.35

CCGGAGCAAUAUUACGUAGA
self-splicing fitness (ln) (30 °C): -3.6 ± 0.19
self-splicing fitness (ln) (37 °C): -2.66 ± 0.2

CUGGAGCAAUAUUACGCAAG
self-splicing fitness (ln) (30 °C): -2.82 ± 0.21
self-splicing fitness (ln) (37 °C): -2.08 ± 0.27

GUUGAGCAAUAUUACGGGUA
self-splicing fitness (ln) (30 °C): -2.46 ± 0.26

UACUAGCAAUAUUACGAGAC
self-splicing fitness (ln) (37 °C): -1.56 ± 0.25

GAUGAGCAAUAUUACGGUUG
self-splicing fitness (ln) (30 °C): -3.87 ± 0.21
self-splicing fitness (ln) (37 °C): -2.22 ± 0.18

AACUAGCAAUAUUACGUCGG
self-splicing fitness (ln) (30 °C): -3.57 ± 0.14
self-splicing fitness (ln) (37 °C): -2.26 ± 0.16

GUGAAGCAAUAUUACGGCAG
self-splicing fitness (ln) (30 °C): -2.32 ± 0.13
self-splicing fitness (ln) (37 °C): -1.06 ± 0.16

CCGGAGCAAUAUUACGAUUG
self-splicing fitness (ln) (30 °C): -0.529 ± 0.094
self-splicing fitness (ln) (37 °C): 0.132 ± 0.14

CCCGAGCAAUAUUACGUACC
self-splicing fitness (ln) (30 °C): -2 ± 0.21

CACGAGCAAUAUUACGGACA
self-splicing fitness (ln) (30 °C): -3.03 ± 0.22
self-splicing fitness (ln) (37 °C): -2.9 ± 0.22

AGAAAGCAAUAUUACGACAU
self-splicing fitness (ln) (30 °C): 0.0508 ± 0.012
self-splicing fitness (ln) (37 °C): 0.0923 ± 0.032

GACCAGCAAUAUUACGUAUG
self-splicing fitness (ln) (30 °C): -1.75 ± 0.065
self-splicing fitness (ln) (37 °C): -0.824 ± 0.076

ACUAAGCAAUAUUACGCGUG
self-splicing fitness (ln) (30 °C): -1.58 ± 0.098
self-splicing fitness (ln) (37 °C): -0.684 ± 0.095

GCUUAGCAAUAUUACGUUCA
self-splicing fitness (ln) (30 °C): -1.01 ± 0.15
self-splicing fitness (ln) (37 °C): -1.21 ± 0.17

GCAAAGCAAUAUUACGCAGC
self-splicing fitness (ln) (30 °C): -0.0889 ± 0.15
self-splicing fitness (ln) (37 °C): -2.46 ± 0.39

UGAAAGCAAUAUUACGAGAA
self-splicing fitness (ln) (30 °C): -2.32 ± 0.23
self-splicing fitness (ln) (37 °C): -1.22 ± 0.15
